This is an account of results in doi:10.1101/2022.09.13.507756 (bioRxiv, 2022).

The data set “SEC + SEC-MALS” concerns the molecule itself. Briefly: SEC + SEC-MALS. Background: In gel filtration, larger molecules generally elute earlier.
The data set “SEC” deals with the molecule itself. Briefly: SEC.

B1: Cyclohexadienyl dehydratase from Pseudomonas aeruginosa (PaCDT) (enzyme, UniProt Q01269 26-268, looked up)
chain: QESRLDRILESGVLRVATTGDYKPFSYRTEEGGYAGFDVDMAQRLAESLGAKLVVVPTSWPNLMRDFADDRFDIAMSGISINLERQRQAYFSIPYLRDGKTPITLCSEEARFQTLEQIDQPGVTAIVNPGGTNEKFARANLKKARILVHPDNVTIFQQIVDGKADLMMTDAIEARLQSRLHPELCAVHPQQPFDFAEKAYLLPRDEAFKRYVDQWLHIAEQSGLLRQRMEHWLEYRWPTAHGK
For the protein B1, in the data set “SEC + SEC-MALS”, the stoichiometry N (usually a count of units in the complex or per binding partner) was 3.

B2: Ws0279 (natural protein, UniProt Q7MAG0 24-258, looked up)
chain: QKSTLNEIIKRGELRVGLEPGYLPFEMKDKKGNVIGFDVDLAREMAKAMGVKLKLVPTSWDGLIPGLVTEKFDIIISGMTISQERNLRVNFVEPYIVVGQSLLVKKGLEKGVKSYKDLDKPELTLVTKFGVSAEYAAKRLFKNAKLKTYDTEAEAVQEVLNGKADMFIFDLPFNVAFMAQKGQGYLVHLDTSLTYEPLGWAIKKGDPDFLNWLNHFLAQIKHDGSYDELYERWFV
For B2, the “stoichiometry N” value in the data set “SEC” came to 3.

B3: PaCDTΔC (enzyme, Pseudomonas aeruginosa, UniProt Q01269 26-259, looked up)
chain: QESRLDRILESGVLRVATTGDYKPFSYRTEEGGYAGFDVDMAQRLAESLGAKLVVVPTSWPNLMRDFADDRFDIAMSGISINLERQRQAYFSIPYLRDGKTPITLCSEEARFQTLEQIDQPGVTAIVNPGGTNEKFARANLKKARILVHPDNVTIFQQIVDGKADLMMTDAIEARLQSRLHPELCAVHPQQPFDFAEKAYLLPRDEAFKRYVDQWLHIAEQSGLLRQRMEHWLE
As for B3, in the data set “SEC”, the “stoichiometry N” value stood at 3.
